B1: humanized DREG-55: humanized anti-L-selectin antibody, mouse DREG-55 CDRs in human Gal framework, sequences in FIG. 7 (antibody, V domains shown)
VH: MNFGSSLIFLVLVLKGVQCEVQLVESGGGLVQPGGSLRLSCAASGFTFSTYAMSWVRQAPGKGLEWVASISTGGSTYYPDSVKGRFTISRDNAKNTLYLQMNSLRAEDTAVYYCARDYDGYFDYWGQGTLVTVSS
VL: METDTILLWVLLLWVPGSTGDIQMTQSPSSLSASVGDRVTITCKASQSVDYDGDSYMNWYQQKPGKAPKLLIYAASNLESGIPSRFSGSGSGTDFTLTISSLQPEDFATYYCQQSNEDPWTFGQGTKVEIK
B2: mouse DREG-55: mouse monoclonal antibody that binds to human L-selectin (Kishimoto et al.); CDR donor (antibody, V domains shown)
VH: MNFGSSLIFLVLVLKGVQCEVKLVESGGGLVKPGGSLKLACAASGFTFSTYAMSWVRQTPEKRLEWVASISTGGSTYYPDSVKGRFTISRDNARNILYLQMSSLRSEDTAMYYCARDYDGYFDYWGQGTTLTVSS
VL: METDTILLWVLLLWVPGSTGDIVLTQSPASLSVSLGERASISCKASQSVDYDGDSYMNWYQQKPGQPPKLLIYAASNLESGIPARFSGSGSGTDFTLNIHPVEEEDAATYYCQQSNEDPWTFGGGTKLEIK
B3: humanized DREG-200: humanized anti-L-selectin antibody, mouse DREG-200 CDRs in human Eu framework, sequences in FIG. 2; isotype not stated at these places (antibody, V domains shown)
VH: MGWSCIILFLVATATGVHSQVQLVQSGAEVKKPGSSVKVSCKASGYTFTSYVMHWVRQAPGQGLEWIGYIYPYNDGTKYNEKFKGRVTITSDESTNTAYMELSSLRSEDTAVYYCAREEYGNYVRYFDVWGQGTLVTVSS
VL: MVFTPQILGLMLFWISASRGDIQMTQSPSTLSASVGDRVTITCKSSQSLLNSSNQKNYLAWYQQKPGKAPKLLVYFASTRESGVPDRFIGSGSGTDFTLTISSLQPEDFATYFCHQHYSTPLTFGQGTKVEVK

Assays:
[1] = test system: binding of human neutrophils to IL-1 stimulated human umbilical cord endothelial cells (HUVEC); assay: Adhesion of human neutrophils to IL-1 stimulated HUVEC; format: cell-based; conditions: HUVEC stimulated with 20 ng/ml IL-1β for 4 hr; 4° C., 30 min
Procedure: FIG. 5A. Binding of human neutrophils to IL-1 stimulated human umbilical cord endothelial cells (HUVEC). The neutrophils were first treated with irrelevant control antibody, mouse DREG-200 antibody, or humanized IgG1 DREG-200 antibody, or left untreated, as indicated.
The ability of the mouse and humanized DREG-200 antibodies to block the adhesion of human neutrophils to endothelial cells was determined using a modification of the assay method of Hallmann et al., Biochem. Biophys. Res. Comm. 174:236 (1991). Specifically, human umbilical cord endothelial cells (HUVEC; from Clonetics, San Diego) were grown to confluence in EGM medium (Clonetics) in Lab-Tek 8-chamber slides (Nunc, Naperville, Ill.). The HUVEC cells were stimulated with 20 ng/ml IL-1β (R&D Systems, Minneapolis, Minn.) for 4 hr before use. Neutrophils were isolated by density gradient centrifugation from buffy coats that had been cleared of erythrocytes by dextran sedimentation, and then adjusted to 10^7 per ml. The neutrophils (100 μl) were pre-incubated for 20 minutes on ice with varying concentrations of antibody (in 100 μl RPMI). The HUVEC slides were washed free of IL-1β and placed on a rotary shaker (100 rpm) at 4° C. […] Neutrophil adherence was quantified by counting the neutrophils attached to a defined area of the endothelial cell monolayer with a microscope.

[2] = test system: rabbit leukocytes; conditions: reported in the literature; cited from earlier work
[3] = test system: binding of human lymphocytes to peripheral lymph node high endothelial venules; conditions: Kishimoto et al.; cited from earlier work
[4] = test system: binding of human neutrophils to stimulated human umbilical vein endothelial cells; conditions: Kishimoto et al., Blood 78:805 (1991); cited from earlier work
[5] = test system: L-selectin; assay: Flow cytometry binding to L1-2 L-selectin transfectants; conditions: 1 hour incubation; FITC-conjugated goat anti-human Ig
Procedure: FIG. 8: Binding of humanized DREG-55 to L1-2^L-selectin transfectants compared to binding of control antibody as analyzed by flow cytometry. Fluorescence intensity is indicated on the x-axis.
After washing, cells were incubated in a 1:250 dilution of FITC-conjugated goat anti-human Ig, washed, then analyzed for fluorescence by flow cytometry (FACS).

[6] = test system: binding of human PBMC to peripheral lymph node high endothelial venules; assay: Adhesion of human PBMC to peripheral lymph node high endothelial venules; format: cell-based; conditions: frozen sections of mouse peripheral lymph nodes; 25 minutes
Procedure: FIG. 10: Inhibition of binding of human PBMC to peripheral lymph node high endothelial venules by humanized DREG-55 (HuDREG-55) and humanized DREG-200 (HuDREG-200). The average number of cells bound per HEV for each antibody treatment is shown. Error bars show the standard errors of the values calculated for three sections.
Human peripheral blood mononuclear cells were isolated and cultured for 2 days at 37° C. in 10% FBS/DMEM. After washing and resuspending in assay medium (5% FBS/DMEM/10 mM HEPES, pH 6.9) at 7×10^6 /ml in the presence of the indicated concentrations of humanized DREG-55, humanized DREG-200 or negative control antibody, cells were applied to frozen sections of mouse peripheral lymph nodes (PLN) while rotating at 50 rpm (as described in Streeter et al., Cell 107, 1853 (1988)). After 25 minutes, non-adherent cells were gently dumped and adherent cells fixed to sections by immersion in 1.5% glutaraldehyde-PBS. Slides were counterstained with thionine and the number of cells bound to each high endothelial venule (HEV) (n=60) in triplicate sections was determined microscopically. The average number of cells bound per HEV for each treatment was calculated.

[7] = test system: L-selectin; assay: Competitive binding of mouse and humanized DREG-55 to CHO L-selectin cells; conditions: 2 hr at 4° C.
Procedure: FIG. 9: Competitive binding of mouse and humanized DREG-55 antibodies to CHO^L-selectin cells expressing L-selectin. Increasing concentrations of cold competitor antibody were incubated with the cells in the presence of radiolabeled tracer humanized DREG-55 antibody, and the ratio of bound/free radioactivity was determined.
The affinity of the humanized DREG-55 antibody for L-selectin was determined by competition with the radio-iodinated humanized DREG-55 antibody (FIG. 9). Purified humanized DREG-55 antibody was labeled with Na^125 I (Amersham, Arlington Heights, Ill.) using lactoperoxidase to 4 mCi/mg of protein (Marchalonis, Biochem. J. 113, 299 (1969)). CHO^L-selectin cells, which were obtained by transfecting the L-selectin genes into the host CHO cells, were used as a source for L-selectin. […] Cells were then washed and centrifuged, and their radioactivities measured. The ratio of bound and free tracer antibody were calculated. The binding affinities were calculated according to the methods of Berzofsky and Berkower (J. A. Berzofsky and I. J. Berkower, in Fundamental Immunology (ed. W. E. Paul), Raven Press (New York), p. 595 (1984), which is incorporated herein by reference).

[8] = test system: human L-selectin; assay: Competitive binding of mouse and humanized DREG-200 antibodies against 125I-labeled mouse DREG-200 on transfected cells; conditions: competition with radio-iodinated mouse DREG-200; 1 hr at 4° C.
Procedure: FIG. 4. Competitive binding of mouse and humanized IgG1 and IgG4 DREG-200 antibodies. The target cells were L2-1 cells, a mouse pre-B cell line, that was transfected with a human L-selectin gene and thus expresses human L-selectin (Berg et al., Biochem. Biophys. Res. Comm. 184:1048 (1992)). 5×10^5 cells were incubated with 3 ng of ^125 I-labeled tracer mouse antibody (2 μCi/μg), together with increasing amounts of mouse or humanized competitor antibody as indicated in 0.2 ml of binding buffer (PBS+2% FBS+0.1% azide) for 1 hr at 4° C. Cells were washed and pelleted, and their bound radioactivity measured. The concentrations of bound and free tracer antibody were calculated.
The affinity of the humanized DREG-200 antibodies for L-selectin were determined by competition with the radio-iodinated mouse DREG-200 antibody (FIG. 4). The binding affinities were calculated according to the methods of Berzofsky (J. A. Berzofsky and I. J. Berkower, in Fundamental Immunology (ed. W. E. Paul), Raven Press (New York), 595 (1984), which is incorporated herein by reference in its entirety for all purposes).

[9] = test system: cat leukocytes; conditions: reported in the literature; cited from earlier work

Molecule | blocking of binding of human lymphocytes to peripheral lymph node high endothelial venules [3] | blocking of binding of human neutrophils to stimulated human umbilical vein endothelial cells [4] | adhesion of human PBMC to lymph node high endothelial venules [6] | also measured
mouse DREG-200: mouse monoclonal antibody that binds to human L-selectin (Kishimoto et al.); CDR donor [reference compound] | partially or completely block | partially or completely block | – | blocking of binding of neutrophils to HUVEC [1]: effectively blocked; cross-reactivity with rabbit leukocytes [2]: cross-reactivity
B1 | – | – | block adhesion | binding to L1-2 L-selectin transfectants by flow cytometry [5]: reacts
B2 | partially or completely block | partially or completely block | – | affinity for L-selectin compared with humanized DREG-55 [7]: no significant difference
B3 | – | – | block adhesion | affinity relative to the mouse DREG-200 antibody [8]: ≤ 2 fold; cross-reactivity with cat leukocytes [9]: cross-reactivity

Reference: patent US6210671A, “Humanized antibodies reactive with L-selectin” (Protein Design Labs, Inc., priority 1995, dated 2001)
